Results on 2 molecules are retold here after US5989823, “Homogeneous detection of a target through nucleic acid ligand-ligand beacon interaction” (NeXstar Pharmaceuticals, Inc.).

Data set [1] addresses T1, PDGF (platelet derived growth factor) (Homo sapiens, UniProt P01127 P01127:82-190). Kind of data set: competition; ligand beacon (SEQ ID NO:2) fluorescence decreases with PDGF; 100 nM aptamer, PBSM (1 mM MgCl2), 4 uM tRNA, 30 C; also in human plasma at 37 C. The conditions noted are these: chain copies: 2. How it is done: The PDGF ligand beacon was used in an assay in which 100 nM PDGF nucleic acid ligand above was mixed with an increasing concentration of PDGF for 10 minutes at 30° C. […] in PBSM buffer containing 4 µM tRNA. Then, 100 nM PDGF ligand beacon was added and the mixture was incubated for 10 minutes at 30° C. A measurement of fluorescein emission at 530 nm was made for each concentration of PDGF using 488 nm monochromatic laser light for excitation in a 96 well format Vistra Fluorimager SI. […] This is the expected result, because as the concentration of PDGF increases, the concentration of PDGF nucleic acid ligand that is not bound to PDGF decreases. Thus, there is a smaller pool of PDGF nucleic acid ligand for the PDGF ligand beacon to hybridize to.

In data set [2] the target is T1, PDGF (platelet derived growth factor). The data set is described as follows: competition; no change in beacon fluorescence; 100 nM aptamer, PBSM, 4 uM tRNA, 37 C. The conditions noted are these: chain copies: 2. How it is done:
Specificity of Nucleic Acid Ligand Interaction with Target in the Presence of Ligand Beacon In the previous examples, a concentration-dependent signal reduction was observed when the target was added. This should not be observed when the wrong target protein is added. This point is illustrated in FIG. 7, where TAQ-nucleic acid ligand (100 nM) was mixed with increasing concentrations of PDGF in PBSM buffer containing 4 μM tRNA at 37° C. for 10 min. Then 110 nM TAQ-ligand beacon was added, incubated for an additional 10 min at the same temperature and fluorescence was measured.

T1 sequence (P01127 82-190, one chain of several): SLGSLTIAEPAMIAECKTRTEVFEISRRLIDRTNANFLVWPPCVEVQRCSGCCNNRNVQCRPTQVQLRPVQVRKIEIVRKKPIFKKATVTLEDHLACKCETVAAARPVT

B1: PDGF nucleic acid ligand (ssDNA)
DNA: TGGGAGGGCGCGTTCTTCGTGGTTACTTTTAGTCCCGT
Turning to B1, the binding result in data set [1] is given as “binds”.

B2: TAQ nucleic acid ligand (ssDNA)
DNA: TGGCGGAGCGATCATCTCAGAGCATTCTTAGCGTTTTGTTCTTGTGTATGA
In the case of B2, the binding result in data set [2] is on record as “no binding”.
